The source of these data is paper PMC12974149.

This test has as its target Rabbit skeletal actin, filamentous (F-actin) (rabbit) (UniProt P68135). Kind of test: fluorescence microscopy of purified drebrin on actin filaments.

As for “mouse drebrin isoform E (natural protein)”, the fraction of actin filaments heavily (>50%) decorated by drebrin was 16%.
